Consider 3 molecules from patent publication WO2020219978A1 (dated 2020).

Experiment [1] has as its target T1, human BCMA (hu-BCMA), as used in SPR (human, UniProt Q02223 1-54).
T1 construct: The construct used in SPR is not described; also called B cell maturation antigen; TNFRSF17
T1 sequence: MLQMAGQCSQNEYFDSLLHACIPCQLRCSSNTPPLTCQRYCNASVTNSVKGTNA
The experiment is described as follows: SPR. In general terms: Surface plasmon resonance follows binding to a sensor surface in real time, without labels.

The next experiment has as its target T2, mouse BCMA (mouse, UniProt O88472 1-49, limits assumed).
T2 construct: also called rodent BCMA
T2 chain (looked up): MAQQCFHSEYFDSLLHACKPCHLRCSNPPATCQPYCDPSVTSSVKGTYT
The experiment is described as follows: SPR.

Experiment [2] has as its target T1, human BCMA (hu-BCMA), as used in SPR. The experiment is described as follows: SPR, mean (n = 3 by paragraph 97).
A further experiment has as its target T3, BCMA/Fc (human, UniProt Q02223 1-54).
T3 construct: not shown: Fc part not described
T3 sequence: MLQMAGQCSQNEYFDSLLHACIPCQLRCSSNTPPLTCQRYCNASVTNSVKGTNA
The experiment is described as follows: flow cytometry blocking experiment on U266 cells; soluble BCMA/Fc against BCMA on the cells. In general terms: A flow cytometer gives signals particle by particle.

Experiment [3] concerns the target T4, human cluster of differentiation 3 epsilon/delta heterodimer (CD3ed) (human, UniProt P04234 22-105).
T4 construct: also called human CD3ed heterodimer
The experiment is described as follows: SPR (n = 3 by paragraph 97).

The target of experiment [4] is human CD3 epsilon (CD3ɛ), form of the assay not stated (human, UniProt P07766 23-126, limits assumed). The experiment is described as follows: not stated (description).
For experiment [5], the target named is T1, human BCMA (hu-BCMA), as used in SPR. The experiment is described as follows: not stated (description).
Experiment [6] has as its target T5, CD3 on Jurkat cells (human, UniProt P07766 23-207).
T5 construct: also called CD3 on T cell lines
The experiment is described as follows: flow cytometry on Jurkat cells.

The target of experiment [7] is T6, human BCMA on cells (NCI-H929, L363, JJN-3, RPMI-8226, U266 myeloma cell lines; HEK293T-huBCMA) (human, UniProt Q02223 1-184).
T6 construct: also called BCMA on myeloma cell lines
T6 sequence: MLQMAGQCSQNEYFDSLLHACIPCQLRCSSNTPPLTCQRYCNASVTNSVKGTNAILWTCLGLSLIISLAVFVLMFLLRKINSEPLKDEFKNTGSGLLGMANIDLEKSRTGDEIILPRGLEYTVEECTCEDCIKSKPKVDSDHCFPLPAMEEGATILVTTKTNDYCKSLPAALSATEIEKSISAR
The experiment is described as follows: flow cytometry on NCI-H929 MM cells, 3 lots.

The target of experiment [8] is T5, CD3 on Jurkat cells. The experiment is described as follows: flow cytometry on Jurkat cells, second study.

In general, Kd refers to the equilibrium constant for the complex coming apart. Read a high Kd as a looser complex. As usually defined, the EC50 is the concentration giving half of the maximal effect.

T5 sequence (P07766 23-207 limits assumed): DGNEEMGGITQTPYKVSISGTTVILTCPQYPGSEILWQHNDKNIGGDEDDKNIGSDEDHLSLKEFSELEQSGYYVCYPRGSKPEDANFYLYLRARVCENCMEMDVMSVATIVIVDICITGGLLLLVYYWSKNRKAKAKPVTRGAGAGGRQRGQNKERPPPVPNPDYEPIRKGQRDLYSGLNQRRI
human CD3 epsilon (CD3ɛ), form of the assay not stated, sequence (P07766 23-126 limits assumed): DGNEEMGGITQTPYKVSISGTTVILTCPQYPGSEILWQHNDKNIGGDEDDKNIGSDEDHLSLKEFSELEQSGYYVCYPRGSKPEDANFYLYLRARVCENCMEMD
T4 sequence (chain, as listed by the source mutant, chain 1 of 2): as the sequence (P07766 23-126 limits assumed) above
T4 sequence (P04234 22-105, stated change not applied, chain 2 of 2): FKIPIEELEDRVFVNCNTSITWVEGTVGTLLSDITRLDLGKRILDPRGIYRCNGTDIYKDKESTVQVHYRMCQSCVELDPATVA

B1: BCMA binder of CC-93269 (anti-BCMA IgG and Fab fragment of clone 83A10-42) (antibody, V domains shown)
VH: EVQLLESGGGLVQPGGSLRLSCAASGFTFSDNAMGWVRQAPGKGLEWVSAISGPGSSTYYADSVKGRFTISRDNSKNTLYLQMNSLRAEDTAVYYCAKVLGWFDYWGQGTLVTVSS
VL: EIVLTQSPGTLSLSPGERATLSCRASQSVSDEYLSWYQQKPGQAPRLLIHSASTRATGIPDRFSGSGSGTDFTLAISRLEPEDFAVYYCQQYGYPPDFTFGQGTKVEIK
For B1, the Kd in experiment [1] was 0.203 to 0.45 nM; in experiment [2] it was 0.431 nM. Also, the binding result with mouse BCMA was “binds”.

B2: phycoerythrin (PE)-conjugated BCMA binder (Clone 83A10-42) of CC-93269 (antibody, V domains shown)
VH: EVQLLESGGGLVQPGGSLRLSCAASGFTFSDNAMGWVRQAPGKGLEWVSAISGPGSSTYYADSVKGRFTISRDNSKNTLYLQMNSLRAEDTAVYYCAKVLGWFDYWGQGTLVTVSS
VL: EIVLTQSPGTLSLSPGERATLSCRASQSVSDEYLSWYQQKPGQAPRLLIHSASTRATGIPDRFSGSGSGTDFTLAISRLEPEDFAVYYCQQYGYPPDFTFGQGTKVEIK
modifications: phycoerythrin (PE)-conjugated; site not stated
notes: also called PE-conjugated 83A10-42
Take B2: the binding result with BCMA/Fc was “binds”.

B3: CC-93269, bispecific trivalent anti-BCMA/anti-CD3 T cell engaging antibody (TCE) (bispecific antibody, human IgG1, kappa, L234A L235A)
heavy 1: not shown
heavy 2: EVQLLESGGGLVQPGGSLRLSCAASGFTFSDNAMGWVRQAPGKGLEWVSAISGPGSSTYYADSVKGRFTISRDNSKNTLYLQMNSLRAEDTAVYYCAKVLGWFDYWGQGTLVTVSSASTKGPSVFPLAPSSKSTSGGTAALGCLVEDYFPEPVTVSWNSGALTSGVHTFPAVLQSSGLYSLSSVVTVPSSSLGTQTYICNVNHKPSNTKVDEKVEPKSCDKTHTCPPCPAPEAAGGPSVFLFPPKPKDTLMISRTPEVTCVVVDVSHEDPEVKFNWYVDGVEVHNAKTKPREEQYNSTYRVVSVLTVLHQDWLNGKEYKCKVSNKALGAPIEKTISKAKGQPREPQVCTLPPSRDELTKNQVSLSCAVKGFYPSDIAVEWESNGQPENNYKTTPPVLDSDGSFFLVSKLTVDKSRWQQGNVFSCSVMHEALHNHYTQKSLSLSPGK
light 1: EVQLLESGGGLVQPGGSLRLSCAASGFTFSTYAMNWVRQAPGKGLEWVSRIRSKYNNYATYYADSVKGRFTISRDDSKNTLYLQMNSLRAEDTAVYYCVRHGNFGNSYVSWFAYWGQGTLVTVSSASVAAPSVFIFPPSDEQLKSGTASVVCLLNNFYPREAKVQWKVDNALQSGNSQESVTEQDSKDSTYSLSSTLTLSKADYEKHKVYACEVTHQGLSSPVTKSFNRGEC
light 2: EIVLTQSPGTLSLSPGERATLSCRASQSVSDEYLSWYQQKPGQAPRLLIHSASTRATGIPDRFSGSGSGTDFTLAISRLEPEDFAVYYCQQYGYPPDFTFGQGTKVEIKRTVAAPSVFIFPPSDRKLKSGTASVVCLLNNFYPREAKVQWKVDNALQSGNSQESVTEQDSKDSTYSLSSTLTLSKADYEKHKVYACEVTHQGLSSPVTKSFNRGEC
Turning to B3, the “fold higher affinity than to rodent BCMA” value in [1] was approximately 10 fold. The Kd in [3] was 25 nM; in [4] it was 24 to 28 nM; in experiment [5], approximately 0.3 nM. In addition, the concentration giving a half-maximal response (EC50) with CD3 on Jurkat cells [6] is 16.8 to 37.4 nM; in experiment [7] it was 1.7 to 2.8 nM; with CD3 on Jurkat cells [8], 121 nM.
